From paper PMC3644067 (Nature Communications, 2013)

Target: T1, α4 (3–233) E206R (human, UniProt P78318 3-233, E206R)
T1 sequence (looked up): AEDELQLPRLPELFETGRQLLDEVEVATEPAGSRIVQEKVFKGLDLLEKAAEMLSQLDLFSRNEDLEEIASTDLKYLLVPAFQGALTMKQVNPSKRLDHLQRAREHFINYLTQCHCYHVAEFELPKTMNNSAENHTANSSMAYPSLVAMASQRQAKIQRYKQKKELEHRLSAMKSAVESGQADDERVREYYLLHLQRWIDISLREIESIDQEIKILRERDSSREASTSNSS
Assay: pull-down

B1: GST-tagged nPP2Ac (1–153) (domain or fragment, human, UniProt P67775 1-153, looked up)
chain: MDEKVFTKELDQWIEQLNECKQLSESQVKSLCEKAKEILTKESNVQEVRCPVTVCGDVHGQFHDLMELFRIGGKSPDTNYLFMGDYVDRGYYSVETVTLLVALKVRYRERITILRGNHESRQITQVYGFYDECLRKYGNANVWKYFTDLFDYL
B1: binds.
